The text below walks through data of patent US20110200615A1 (published 2011).

The target of assay [1] is T1, Botulinum neurotoxin type B, subtype B3 (BoNT/B3) (Clostridium botulinum). The experiment in a line: flow cytometry; yeast-displayed scFv, soluble toxin.
In assay [2] the target is T2, Botulinum neurotoxin type B, subtype B4 (BoNT/B4) (Clostridium botulinum). Described as above.
The target of assay [3] is T1, Botulinum neurotoxin type B, subtype B3 …. The experiment in a line: KinExA flow fluorimetry; IgG in solution. Background: In KinExA the mixture passes briefly over coated beads that capture the unbound partner.
Assay [4] has as its target T2, Botulinum neurotoxin type B, subtype B4 …. The experiment in a line: KinExA flow fluorimetry; IgG in solution.

Broadly, the Kd is the concentration at which binding is half-saturated.

B1: 4B6 scFv (yeast displayed) (scFv)
chain: QVQLVQSGAEVKKPGESLVISCKASGDKDTFTSFWIAWVRQMPGKGLEWMGIIYAGDSDTRYSPSFQGHVNISVDRSTNTAYLQWSSLKASDTAMYYCARHDSRYKYFYFGMDVWGQGTTVTVSSGGGGSGGGGSGGGGSDVVMTQSPSSLSASVGDRITITCQAGQDISNFLNWYQQKPGKAPKLLIRDASNLETGVPSRFSGGGSGTHFTFTISSLHPEDIATYFCQQYDNLPYTFGQGTKLEIK
For the molecule B1, the equilibrium dissociation constant (Kd) in assay [1] is 1.08 nM; in assay [2], 1.61 nM.

B2: 4B19.1 IgG (antibody, V domains shown)
VH: QVQLVQSGAEVKKPGASVNVSCKASGYTFTGYYIYWVRQAPGQGLEWMGWINPNSGVTKYAQKFQGRVTMTIDTSTNTAYMELNRLRADDTAVYYCAREWTQLWSPYDYWGQGTTVTVSS
VL: DIVLTQSPSTLSASVGDRVTISCRASRSIGWYLNWYQQRPGKAPKLLIYAASSLHNGVPSRFSGSGSGTEFTLTISSLQPDDFATYYCQQAFGFPRTFGQGTKVEIKR
For B2, the dissociation constant Kd in assay [3] is 0.156 nM; in assay [4] it was 0.194 nM.

B3: 1B14 scFv (yeast displayed) (scFv)
chain: EVQLVESGGGLVQPGGSLRLSCAASGFTFSSYSMNWVRQAPGKGLEWVAVIWYDGSNKYYADSVKGRFTISRDNSKNTLYLQMNSLRAEDTAVYYCARSSIVGAPYGMDVWGQGTTVTVSSGGGGSGGGGSGGGGSEIVLTQSPSSLSAAVGDRVTITCRASQNIYSYLNWYQQKLGKAPNLLIYAVFSLQSGVPSRFSGSGYGTDFTLTISSLQPEDFATYYCQQSSSSPLTFGGGTKVEIK
In assay [2], B3 had an equilibrium dissociation constant (Kd) of 2.12 nM.

B4: 4B7 scFv (yeast displayed) (scFv)
chain: QVQLQQSGPGLVKPSQTLSLTCSVSGGSINSDGSYWSWVRQHPGKGLEWIGYIYYSGTTYFNPSLKSRLTMSVDTSKNQFSLKMTSVTAADTAVYYCARMSGSRSYSQYYFDSWGQGTLVTVSSGGGGSGGGGSGGGGSDIQMTQSPSSLSASVGDRVTITCRASQSISSYLNWYQQKPGTAPKLLISDASTLQSGVPSRFSGSGSGTEFTLTISNLQPEDFATYYCQQFNSYVWTFGQGTKLEIK
In the case of B4, the Kd in assay [1] came to 25.1 nM; in assay [2], 10 nM.
